The results in this text go back to patent US20240343803A1 (SHANDONG SIMCERE BIOPHARMACEUTICAL, published 2024).

What is called Kd is the equilibrium constant for the complex coming apart. By koff is commonly meant the rate constant with which the complex falls apart. The term kon denotes the rate constant with which the complex forms. The term EC50 denotes the concentration giving half of the maximal effect. A word on the IC50: it is the point on the concentration scale where inhibition reaches its midpoint.

The target in experiment [1] is T1, human PVRIG-mFc protein (Acro, PVG-H5253) (human, UniProt Q6DKI7 41-171, limits assumed).
T1 construct: bought reagent; also called PVRIG-ECD-mFc
T1 sequence (looked up): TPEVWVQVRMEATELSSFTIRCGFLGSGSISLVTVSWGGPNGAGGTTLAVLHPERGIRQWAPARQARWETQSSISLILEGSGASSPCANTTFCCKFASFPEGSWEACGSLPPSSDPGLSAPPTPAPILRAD
Nature of the experiment: competition FACS; blocked: human PVRIG-mFc binding to CHO-K1-CD112 cells. The procedure: After incubation, the cells were added with staining buffer (2% FBS+PBS) to stop staining, centrifuged at 350×g to remove the supernatant, washed twice and resuspended with staining buffer to a density of 1×10⁶ cells/mL. The cells were plated into a 96-well plate (50 μL of cell suspension per well) for further use. A working solution of human PVRIG-mFc protein (Acro, PVG-H5253) prepared with staining buffer, 1 μg/mL (four-fold concentration), was added into a 96-well plate (50 μL PVRIG-mFc working solution per well). […] The diluted antibodies were added to the well containing 50 μL of PVRIG-mFc. The plate was placed on a microplate shaker at 400 rpm for 1 minute to fully mix the antibodies and PVRIG-mFc proteins, and then incubated at 4° C. for 30 minutes. After the incubation, the cell suspension prepared above (100 μL) was added into the wells, gently mixed with the pipette tip and incubated at 4° C. for 30 minutes. After the incubation, the cells were washed twice with staining buffer (200 μL per well) and centrifuged at 350×g for 5 minutes to discard the supernatant. The PE goat anti-mouse IgG Fc antibody (Biolegend, 405337) was diluted 250 times with staining buffer, added into the washed wells (100 μL per well), mixed well, and stained at 4° C. for 30 minutes. After staining, the cells were washed twice with staining buffer, finally resuspended with 200 μL staining buffer and analyzed by flow cytometry (BD, Canto II). The weaker the fluorescence signal, the stronger the ability of the antibodies blocks the binding of CHO-K1 human CD112 cells to the PVRIG-mFc protein. An antibody binding curve was drawn with concentration of antibodies as the abscissa and the corresponding Mean Fluorescence Intensity (MFI) as the ordinate. The IC50 value of the antibodies and the AUC value of the binding curve were calculated by using a Four Parameter Logistic Fit (GraphPadPrism9). The smaller the IC50 value and AUC value, the stronger the ability of the antibodies competes with CHO-K1-CD112 cells to bind to human PVRIG-mFc protein.

Experiment [2] addresses T2, human PVRIG-his (AcroBiosystems, Cat NO. PVG-H52H4) (human, UniProt Q6DKI7 41-171, limits assumed).
T2 construct: treated as the same protein; also called human PVRIG-His protein; Human PVRIG-His, Acro C227P1-9ARF1-T4
T2 sequence (looked up): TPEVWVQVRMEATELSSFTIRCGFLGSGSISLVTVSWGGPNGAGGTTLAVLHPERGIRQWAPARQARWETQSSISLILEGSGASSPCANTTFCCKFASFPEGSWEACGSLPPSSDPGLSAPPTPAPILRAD
Nature of the experiment: competition ELISA on coated human PVRIG-his; blocked ligand human PVRL2-mFc. As for the experimental part:
The ELISA plate was pre-coated with 100 μL/well of 0.5 μg/mL human PVRIG-his protein (AcroBiosystems, Cat NO. PVG-H52H4). The tested anti-PVRIG antibodies were diluted from the highest concentration of 16 nM (two-fold concentration). The diluted antibodies were mixed with 18 ng/ml human PVRL2-mFc (AcroBiosystems, Cat NO. CD2-H5257) in equal volume, added into the plate (100 μL/well), and incubated with shaking at room temperature for 2.0 hours. […] A HRP substrate, TMB (Thermo, Cat NO. 34029) was added into wells after washing the plate again for color development. After adding a termination solution to terminate the reaction, the absorbance value was read by a microplate reader (MD i3×). An inhibiting curve was drawn with concentration of antibodies as the abscissa and the corresponding OD value as the ordinate. The IC50 value was calculated by using a Four Parameter Logistic Fit (GraphPadPrism9). The smaller the IC50 value, the stronger the ability of the antibodies inhibits the binding between PVRIG and PVRL2. The positive and negative controls are the same as in Example 8.
A general note: In an ELISA, binding on a coated surface is turned into a signal by an enzyme label.

Experiment [3] addresses T3, Fusion protein of extracellular domain of human TIGIT and His-tag (human TIGIT ECD-his) (human).
T3 chain: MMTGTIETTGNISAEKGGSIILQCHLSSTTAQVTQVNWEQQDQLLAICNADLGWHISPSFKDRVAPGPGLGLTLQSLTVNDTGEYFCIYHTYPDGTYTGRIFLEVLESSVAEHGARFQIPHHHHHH
In words: BIAcore. Background: Surface plasmon resonance follows binding to a sensor surface in real time, without labels.

For experiment [4], the target named is T4, Fusion protein of extracellular domain of human TIGIT and mouse IgG2a Fc fragment (human TIGIT ECD-mFc) (human).
T4 construct: The entry includes the signal peptide (limits not recoverable) and the mouse IgG2a Fc
T4 chain: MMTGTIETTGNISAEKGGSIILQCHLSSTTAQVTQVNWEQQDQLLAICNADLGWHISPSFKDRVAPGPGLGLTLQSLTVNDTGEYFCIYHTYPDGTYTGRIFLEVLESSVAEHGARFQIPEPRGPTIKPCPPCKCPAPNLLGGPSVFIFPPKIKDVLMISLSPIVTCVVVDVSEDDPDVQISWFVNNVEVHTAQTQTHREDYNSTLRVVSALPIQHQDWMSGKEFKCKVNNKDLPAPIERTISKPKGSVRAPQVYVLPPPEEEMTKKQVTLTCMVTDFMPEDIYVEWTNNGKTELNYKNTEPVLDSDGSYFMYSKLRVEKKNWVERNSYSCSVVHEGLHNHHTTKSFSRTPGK
Nature of the experiment: ELISA, human TIGIT ECD-mFc. The procedure:
(§1) After discarding the coating solution, the plate was added with 5% skim milk powder (Sangon Biotech, CAT #A600669-0250)-PBS, 250 μL/well, and incubated at 37° C. for 2-4 hours. […] The enzyme-labeled plate was then washed with 0.05% Tween 20-PBS for 3 times on the Microplate Washer, added with tested antibodies diluted to 13 nM with 1% BSA (diluted by 3-fold serial dilution for 12 concentration points), 50 μL/well, and incubated at 37° C. for 1.5-2 hours. The plate was washed with 0.05% Tween 20-PBS for 3 times on the Microplate Washer, then added with HRP enzyme-labeled antibodies (Merck, CAT #AP113P) diluted with 1% BSA (Sangon Biotech, CAT #A500023-0100)-PBS at a dilution ratio of 1:5000, 50 μL/well, and incubated at 37° C. for 1 hour. After washing 3 times with 0.05% Tween 20-PBS on the Microplate Washer, the plate was added with TMB chromogenic solution (KPL, CAT #52-00-03), 50 μL/well, and incubated at room temperature for 7-10 minutes. 1M HCL, 50 μL/well, was then added into the plate to terminate the reaction, and the OD450 nm was read by a microplate reader (Biotek, Powerwave HT). […] (b) The binding activity of anti-TIGIT chimeric antibodies to CHO-K1 human TIGIT (cells with high, medium and low expression levels) and CHO-KI cynomolgus monkey TIGIT detected by FACS.
(§2) The affinity of the above humanized antibodies with human TIGIT ECD-His is detected by BIAcore, and with reference to the methods of Example 4 (a), (b), and (d), the binding activity of the above humanized antibodies to human TIGIT ECD-mFc, CHO-K1 human TIGIT, CHO-K1 cynomolgus monkey TIGIT and cynomolgus monkey TIGIT ECD-mFc, and the effect of the humanized antibodies blocking the binding between human TIGIT ECD-mFc and CHO-K1 CD155 are detected, the results are shown in Table 18.

Experiment [5] concerns the target T5, Fusion protein of extracellular domain of human TIGIT and human IgG1 Fc fragment (human TIGIT ECD-hFc) (human).
T5 construct: The entry includes the signal peptide (limits not recoverable) and the human IgG1 Fc
In words: blocking of TIGIT ECD-hFc binding to CHO-K1 CD155 cells. An outline of the steps:
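The inhibition curves from which IC50 was calculated were generated by cell-based ELISA. Fixed CHO-K1 CD155 cells, blocked with 5% skim milk-PBS, were incubated at 37° C for 1.5-2 h with antibodies that had been premixed for 0.5 h with human TIGIT ECD-hFc at a working concentration of 30 ng/mL. Detection of bound TIGIT used HRP secondary antibody at 1:5000 for 1 h at 37° C, followed by TMB and reading as OD450 nm.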

The target in experiment [6] is T6, Full-length human TIGIT on CHO-K1 cells (CHO-K1 human TIGIT) (human, UniProt Q495A1 22-244).
T6 construct: NCBI XP_024309156.1; the entry includes the signal peptide (limits not recoverable); The strain (high, medium, low) is named under assay; also called high expression strain 1D2; medium expression strain 2D10
T6 sequence: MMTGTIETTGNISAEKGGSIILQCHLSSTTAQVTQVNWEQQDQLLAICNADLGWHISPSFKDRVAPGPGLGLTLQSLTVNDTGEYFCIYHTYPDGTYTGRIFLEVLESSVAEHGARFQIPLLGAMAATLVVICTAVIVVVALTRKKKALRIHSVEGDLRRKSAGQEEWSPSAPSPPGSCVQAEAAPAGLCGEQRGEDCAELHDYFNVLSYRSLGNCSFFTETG
Nature of the experiment: cell binding, CHO-K1 human TIGIT high expression strain. As for the experimental part:
The collected cells were washed once with PBS (Hyclone, CAT #SH30256), resuspended to 2×10⁵/50 μL with 1% BSA-PBS. The antibodies were diluted to 80 nM with 1% BSA-PBS (diluted by 3-fold serial dilution for 12 concentration points). The 50 μL cells were then mixed with 50 μL diluted antibodies, and then incubated at 4° C. for 60 minutes. […] After washing twice with PBS, the cell samples were resuspended with 1% BSA-PBS, 100 μL/well and then analyzed by flow cytometry (BD, Canto II). […] [0298] (c) The effect of anti-TIGIT chimeric antibodies blocking the interaction between Bio-CD155-His and CHO-K1 human TIGIT high expression cell strains detected by FACS
as §2

Experiment [7] deals with T7, Fusion protein of extracellular domain of cynomolgus monkey TIGIT and mouse IgG2a Fc fragment (cynomolgus … (cynomolgus monkey)).
T7 construct: The entry includes the signal peptide (limits not recoverable) and the mouse IgG2a Fc
Nature of the experiment: ELISA, cynomolgus monkey TIGIT ECD-mFc. The procedure: as §1, §2

Experiment [8] concerns the target T3, Fusion protein of extracellular domain …. In words: BIAcore; KD ratio to TIGIT-CHI-006.

T5 sequence (chain, as listed by the source limits assumed): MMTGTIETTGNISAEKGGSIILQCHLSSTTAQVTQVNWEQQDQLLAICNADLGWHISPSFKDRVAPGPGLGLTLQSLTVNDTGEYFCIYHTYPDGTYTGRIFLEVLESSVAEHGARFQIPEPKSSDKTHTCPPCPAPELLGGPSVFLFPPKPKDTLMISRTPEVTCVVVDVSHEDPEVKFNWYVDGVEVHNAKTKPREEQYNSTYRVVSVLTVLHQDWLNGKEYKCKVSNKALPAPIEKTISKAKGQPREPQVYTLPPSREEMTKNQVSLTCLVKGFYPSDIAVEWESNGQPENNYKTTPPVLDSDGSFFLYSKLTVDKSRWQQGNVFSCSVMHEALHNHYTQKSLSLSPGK
T7 sequence (chain, as listed by the source limits assumed): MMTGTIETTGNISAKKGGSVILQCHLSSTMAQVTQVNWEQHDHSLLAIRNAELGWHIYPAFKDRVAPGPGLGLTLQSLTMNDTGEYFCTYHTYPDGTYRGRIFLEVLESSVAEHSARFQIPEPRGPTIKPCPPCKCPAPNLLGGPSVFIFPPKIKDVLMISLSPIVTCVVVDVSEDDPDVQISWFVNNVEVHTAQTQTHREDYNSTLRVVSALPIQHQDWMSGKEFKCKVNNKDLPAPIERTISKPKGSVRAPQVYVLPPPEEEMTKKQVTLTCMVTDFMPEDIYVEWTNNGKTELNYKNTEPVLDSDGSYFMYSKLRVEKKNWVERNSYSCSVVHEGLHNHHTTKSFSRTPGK

B1: PVRIG-A35 (VHH)
VHH: EVQVVESGGGLVQSGGSLRLSCAASGRTRSMYVMGWFRQAPGKEREFVGRIKWSGDTTYTSYADFVKGRFTLYGNQARNTVYLQMNSLKPEDTAVYYCNGRSRFNVINAWGTGTLVTVAS
notes: tested as VHH-hinge-CH2-CH3 (human IgG1-Fc); not shown: human IgG1 hinge-CH2-CH3
As to B1, the “IC50 (read off the curve)” value in experiment [1] and in experiment [2] was around 1000 pM throughout.

B2: PVRIG-A43 (VHH)
VHH: QVQLVESGGGLVQSGGSLRLSCAASGRTRSMYVMGWFRQAPGKEREFVGRIKWSGDTTYTSYADFVKGRFTLYGNQARNTVYLQMNSLKVEDTAVYYCAGRVVPLPSRQRDRYDYWGQGTQVTVSS
notes: as for B1
Regarding B2, the “IC50 (read off the curve)” value in experiment [1] and in experiment [2] was around 1000 pM in each case.

B3: TIGIT-006-H3L1 (antibody, V domains shown)
VH: EVQLQESGPGLVKPSETLSLTCAVSGYSMTSDYWNWIRQPPGKKLEWIGYISYSGRTYYNPSLKSRVTISRDTSKNQFSLKLSSVTAADTAVYYCARGDYSNYGGAMYDWGQGTTVTVSS
VL: DIVMTQTPLSLSVTPGQPASISCRASQGVSTTIAWYLQKPGQSPQLLIYSASYRYTGVPDRFSGSGSGTDFTLKISRVEAEDVGVYYCQQYYSSPFTFGGGTKVEIK
notes: Humanized anti-TIGIT antibody
As for B3, in experiment [3], binding was characterised by a dissociation constant (Kd) of 705 pM. In experiment [3], this molecule registered a koff of 0.000241 s⁻¹. Also, in experiment [3], the kon worked out at 342000 M⁻¹ s⁻¹. In addition, the values for the EC50 in experiment [4], in experiment [6] and in experiment [7] were 9.6 pM, 46.8 pM and 2810 pM, respectively. Moreover, the IC50 in experiment [5] was 637 pM. For the same molecule, the “Fold change vs chimeric antibodies (KD)” value in experiment [8] was 9.11 fold.

B4: TIGIT-006-H2L2 (antibody, V domains shown)
VH: EVQLQESGPGLVKPSETLSLTCAVSGYSMTSDYWNWIRQPPGKGLEWIGYISYSGRTYYNPSLKSRVTISRDTSKNQFSLKLSSVTAADTAVYYCARGDYSNYGGAMYDWGQGTTVTVSS
VL: DIVMTQTPLSLSVTPGQPASISCRASQGVSTTIAWYQQKPGQSPKLLIYSASYRYTGVPDRFSGSGSGTDFTLKISRVEAEDVGVYYCQQYYSSPFTFGGGTKVEIK
notes: Humanized anti-TIGIT antibody
With B4, in experiment [3], binding was characterised by a dissociation constant (Kd) of 893 pM. Also, the koff in experiment [3] stood at 0.000324 s⁻¹. In experiment [3], the kon was determined as 363000 M⁻¹ s⁻¹. Moreover, the EC50 in experiment [4] was found to be 11.7 pM; in experiment [6] it was 44.4 pM; in experiment [7] it was 3380 pM. Moreover, the IC50 in experiment [5] was 904 pM. In experiment [8], the “Fold change vs chimeric antibodies (KD)” value amounted to 11.5 fold.

B5: PVRIG-A75 (VHH)
VHH: QLQLVESGGGLVQSGGSLRLSCAASGRTRSMYVMGWFRQAPGKEREFVGRIKWSGDTTYTSYADFVKGRFTLYGNQARNTVYLQMNSLKPEDTAVYSCAASKFPVSGVPEHYDYWGQGTQVTVSS
notes: as for B1
In the case of B5, the entries for the “IC50 (read off the curve)” value in experiment [1] and in experiment [2] were around 800 pM and around 1000 pM, respectively.

B6: PVRIG-A104 (VHH)
VHH: EVQVVESGGGLVQAGGSLRLSCAASGRTRSMYVMGWFRQAPGKEREFVGRIKWSGDTTYTSYADFVKGRFTLYGNQARNTVYLQMNSLKPEDTAVYYCYRRSWTNTKLYWGKGIQVTVSS
notes: as for B1
For the molecule B6, the “IC50 (read off the curve)” value in experiment [1] and in experiment [2] was around 1000 pM throughout.
